Assays:
[1] = molecular target: artificial endostatin dimer (UniProt P39060); assay: SPR (Biacore)
fibronectin = fibronectin (UniProt P02751 32-2477); assay: SPR (Biacore)

Sequence of fibronectin (from UniProt P02751 32-2477) (P02751 32-2477): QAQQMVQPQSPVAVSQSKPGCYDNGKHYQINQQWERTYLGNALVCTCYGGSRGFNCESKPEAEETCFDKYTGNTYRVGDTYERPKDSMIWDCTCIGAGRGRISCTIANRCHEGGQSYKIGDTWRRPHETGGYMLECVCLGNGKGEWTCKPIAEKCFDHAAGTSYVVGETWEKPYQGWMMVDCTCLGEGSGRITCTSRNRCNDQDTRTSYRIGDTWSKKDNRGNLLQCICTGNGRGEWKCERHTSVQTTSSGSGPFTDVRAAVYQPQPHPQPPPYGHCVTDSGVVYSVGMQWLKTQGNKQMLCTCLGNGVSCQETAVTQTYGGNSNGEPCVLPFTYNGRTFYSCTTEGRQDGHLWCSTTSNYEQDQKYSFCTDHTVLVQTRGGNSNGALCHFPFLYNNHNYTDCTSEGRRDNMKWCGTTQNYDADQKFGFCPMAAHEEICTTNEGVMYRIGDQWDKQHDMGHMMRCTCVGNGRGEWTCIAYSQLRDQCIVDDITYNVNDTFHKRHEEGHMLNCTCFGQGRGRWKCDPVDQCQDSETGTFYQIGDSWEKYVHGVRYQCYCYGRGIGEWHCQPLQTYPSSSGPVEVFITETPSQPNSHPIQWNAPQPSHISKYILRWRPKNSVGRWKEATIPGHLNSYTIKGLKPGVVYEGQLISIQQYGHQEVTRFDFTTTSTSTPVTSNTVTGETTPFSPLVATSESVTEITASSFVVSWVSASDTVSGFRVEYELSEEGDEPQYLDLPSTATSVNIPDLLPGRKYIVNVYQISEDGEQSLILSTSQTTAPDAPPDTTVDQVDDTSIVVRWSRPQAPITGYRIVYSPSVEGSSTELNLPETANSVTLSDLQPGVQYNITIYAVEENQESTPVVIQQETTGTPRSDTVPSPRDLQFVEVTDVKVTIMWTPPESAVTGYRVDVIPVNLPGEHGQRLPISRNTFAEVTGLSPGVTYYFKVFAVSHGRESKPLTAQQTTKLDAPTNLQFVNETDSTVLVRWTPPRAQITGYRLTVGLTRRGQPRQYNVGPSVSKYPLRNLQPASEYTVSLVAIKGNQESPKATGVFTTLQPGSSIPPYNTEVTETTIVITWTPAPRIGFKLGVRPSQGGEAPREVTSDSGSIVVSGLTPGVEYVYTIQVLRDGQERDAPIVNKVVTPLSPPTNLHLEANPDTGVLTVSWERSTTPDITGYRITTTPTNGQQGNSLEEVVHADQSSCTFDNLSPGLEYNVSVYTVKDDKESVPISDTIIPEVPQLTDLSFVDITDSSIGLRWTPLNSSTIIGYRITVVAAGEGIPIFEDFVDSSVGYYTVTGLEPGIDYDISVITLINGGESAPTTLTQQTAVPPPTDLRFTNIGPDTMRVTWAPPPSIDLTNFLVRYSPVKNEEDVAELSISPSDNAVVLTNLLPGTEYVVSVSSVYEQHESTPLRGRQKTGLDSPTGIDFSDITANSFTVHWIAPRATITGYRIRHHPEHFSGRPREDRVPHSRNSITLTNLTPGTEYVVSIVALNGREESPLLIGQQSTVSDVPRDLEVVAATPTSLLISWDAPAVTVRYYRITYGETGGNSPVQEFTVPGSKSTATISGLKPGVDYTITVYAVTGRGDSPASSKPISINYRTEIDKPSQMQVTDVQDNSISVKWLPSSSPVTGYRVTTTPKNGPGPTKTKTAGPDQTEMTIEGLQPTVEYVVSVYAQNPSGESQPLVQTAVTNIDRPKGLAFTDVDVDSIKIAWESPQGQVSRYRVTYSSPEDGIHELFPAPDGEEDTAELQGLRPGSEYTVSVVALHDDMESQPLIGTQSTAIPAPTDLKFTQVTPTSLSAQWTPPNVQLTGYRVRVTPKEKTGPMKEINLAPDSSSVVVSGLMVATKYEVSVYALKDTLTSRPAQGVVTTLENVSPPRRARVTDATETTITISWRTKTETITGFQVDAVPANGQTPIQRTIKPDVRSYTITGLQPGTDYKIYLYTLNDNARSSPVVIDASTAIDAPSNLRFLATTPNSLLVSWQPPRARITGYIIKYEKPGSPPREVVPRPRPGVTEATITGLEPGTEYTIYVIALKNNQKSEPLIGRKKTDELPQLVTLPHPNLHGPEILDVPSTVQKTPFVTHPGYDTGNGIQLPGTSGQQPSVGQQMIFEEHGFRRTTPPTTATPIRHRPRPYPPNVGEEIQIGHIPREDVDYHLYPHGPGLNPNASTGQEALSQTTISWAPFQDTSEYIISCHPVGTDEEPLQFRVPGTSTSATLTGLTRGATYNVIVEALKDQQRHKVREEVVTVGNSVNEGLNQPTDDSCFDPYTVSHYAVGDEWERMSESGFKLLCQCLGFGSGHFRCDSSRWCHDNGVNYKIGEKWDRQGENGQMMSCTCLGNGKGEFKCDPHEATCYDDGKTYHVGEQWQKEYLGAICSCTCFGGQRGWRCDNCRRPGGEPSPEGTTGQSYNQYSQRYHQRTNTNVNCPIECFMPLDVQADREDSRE

Row | Molecule | Kd [1] [nM] | Kd (fibronectin) [nM]
1 | fibronectin (from UniProt P02751 32-2477) | 4.84 | 
2 | human NC-1 (hNC-1) trimer of collagen 18 (other) SGVRLWATRQAMLGQVHEVPEGWLIFVAEQEELYVRVQNGFRKVQLEARTPLPRGTDNEVAALQPPVVQLHDSNPYPRREHPHPTARPWRADDILASPPRLPEPQPYPGAPHHSSYVHLRPARPTSPPAHSHRDFQPVLHLVALNSPLSGGMRGIRGADFQCFQQARAVGLAGTFRAFLSSRLQDLYSIVRRADRAAVPIVNLKDELLFPSWEALFSGSEGPLKPGARIFSFDGKDVLRHPTWPQKSVWHGSDPNGRRLTESYCETWRTEAPSATGQASSLLGGRLLGQSAASCHHAYIVLCIENSFMTASK |  | 8.4
3 | Human VEGF (R&D) (ligand) APMAEGGGQNHHEVVKFMDVYQRSYCHPIETLVDIFQEYPDEIEYIFKPSCVPLMRCGGCCNDEGLECVPTEESNITMQIMRIKPHQGQHIGEMSFLQHNKCECRPKKDRARQENPCGPCSERRKHLFVQDPQTCKCSCKNTDSRCKARQLELNERTCRCDKPRR |  | 1.35
